Data: US20230235013A1 (MABSOLVE, published 2023)
Changes are numbered by the printed parent chain. In names and notes the source's numbering stands.

T1: mouse FcRn (Sino Biological Cat. No. CT029-M08H) (mouse, UniProt Q61559 22-297; P01887 21-119)
T1 construct: Bought protein, captured on an anti-histidine chip
T1 sequence (looked up): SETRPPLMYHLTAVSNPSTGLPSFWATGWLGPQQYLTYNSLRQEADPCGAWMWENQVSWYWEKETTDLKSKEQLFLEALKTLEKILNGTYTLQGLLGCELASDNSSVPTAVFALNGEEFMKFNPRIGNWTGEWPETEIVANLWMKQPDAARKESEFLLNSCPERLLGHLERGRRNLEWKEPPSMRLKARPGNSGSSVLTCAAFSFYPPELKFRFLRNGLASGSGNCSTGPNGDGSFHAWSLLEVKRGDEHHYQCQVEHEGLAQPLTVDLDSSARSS
T1 sequence (b2m, looked up): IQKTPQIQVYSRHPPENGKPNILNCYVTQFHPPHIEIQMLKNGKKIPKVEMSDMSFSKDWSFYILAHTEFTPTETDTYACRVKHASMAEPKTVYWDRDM

B1: anti-CD20 (rituximab) human IgG1 L234Q/G236R (antibody)
heavy: not shown
light: QIVLSQSPAILSASPGEKVTMTCRASSSVSYIHWFQQKPGSSPKPWIYATSNLASGVPVRFSGSGSGTSYSLTISRVEAEDAATYYCQQWTSNPPTFGGGTKLEIKRTVAAPSVFIFPPSDEQLKSGTASVVCLLNNFYPREAKVQWKVDNALQSGNSQESVTEQDSKDSTYSLSSTLTLSKADYEKHKVYACEVTHQGLSSPVTKSFNRGEC
notes: EU numbering; also called 2-30; copies: 2 + 2
B2: anti-CD20 (rituximab) human IgG1 L234Q/L235A/G236R (antibody)
heavy: not shown
light: B1 light
notes: EU numbering; also called 2-27; copies: 2 + 2
B3: anti-CD20 (rituximab) human IgG1 L234R/L235R/G236R (antibody)
heavy: QVQLQQPGAELVKPGASVKMSCKASGYTFTSYNMHWVKQTPGRGLEWIGAIYPGNGDTSYNQKFKGKATLTADKSSSTAYMQLSSLTSEDSAVYYCARSTYYGGDWYFNVWGAGTTVTVSSASTKGPSVFPLAPSSKSTSGGTAALGCLVKDYFPEPVTVSWNSGALTSGVHTFPAVLQSSGLYSLSSVVTVPSSSLGTQTYICNVNHKPSNTKVDKKVEPKSCDKTHTCPPCPAPERRRGPSVFLFPPKPKDTLMISRTPEVTCVVVDVSHEDPEVKFNWYVDGVEVHNAKTKPREEQYNSTYRVVSVLTVLHQDWLNGKEYKCKVSNKALPAPIEKTISKAKGQPREPQVYTLPPSRDELTKNQVSLTCLVKGFYPSDIAVEWESNGQPENNYKTTPPVLDSDGSFFLYSKLTVDKSRWQQGNVFSCSVMHEALHNHYTQKSLSLSPGK
light: B1 light
notes: EU numbering; also called 2-43; copies: 2 + 2
B4: anti-CD20 (rituximab variable regions) human IgG2 L234Q/L235S (antibody)
heavy: QVQLQQPGAELVKPGASVKMSCKASGYTFTSYNMHWVKQTPGRGLEWIGAIYPGNGDTSYNQKFKGKATLTADKSSSTAYMQLSSLTSEDSAVYYCARSTYYGGDWYFNVWGAGTTVTVSSASTKGPSVFPLAPCSRSTSESTAALGCLVKDYFPEPVTVSWNSGALTSGVHTFPAVLQSSGLYSLSSVVTVPSSNFGTQTYTCNVDHKPSNTKVDKTVERKCCVECPPCPAPPQSGPSVFLFPPKPKDTLMISRTPEVTCVVVDVSHEDPEVQFNWYVDGVEVHNAKTKPREEQFNSTFRVVSVLTVVHQDWLNGKEYKCKVSNKGLPAPIEKTISKTKGQPREPQVYTLPPSREEMTKNQVSLTCLVKGFYPSDIAVEWESNGQPENNYKTTPPMLDSDGSFFLYSKLTVDKSRWQQGNVFSCSVMHEALHNHYTQKSLSLSPGK
light: B1 light
notes: also called 11.144; copies: 2 + 2
B5: anti-CD52 (alemtuzumab) human IgG1 N297Q (aglycosyl) (antibody)
heavy: not shown
light: not shown
notes: EU numbering; also called 4-67; copies: 2 + 2
B6: anti-CD20 (rituximab variable regions) mouse IgG2a L234Q/L235S/G236R (antibody)
heavy: QVQLQQPGAELVKPGASVKMSCKASGYTFTSYNMHWVKQTPGRGLEWIGAIYPGNGDTSYNQKFKGKATLTADKSSSTAYMQLSSLTSEDSAVYYCARSTYYGGDWYFNVWGAGTTVTVSSAKTTAPSVYPLAPVCGDTTGSSVTLGCLVKGYFPEPVTLTWNSGSLSSGVHTFPAVLQSDLYTLSSSVTVTSSTWPSQSITCNVAHPASSTKVDKKIEPRGPTIKPCPPCKCPAPNQSRGPSVFIFPPKIKDVLMISLSPIVTCVVVDVSEDDPDVQISWFVNNVEVHTAQTQTHREDYNSTLRVVSALPIQHQDWMSGKEFKCKVNNKDLPAPIERTISKPKGSVRAPQVYVLPPPEEEMTKKQVTLTCMVTDFMPEDIYVEWTNNGKTELNYKNTEPVLDSDGSYFMYSKLRVEKKNWVERNSYSCSVVHEGLHNHHTTKSFSRTPGK
light: QIVLSQSPAILSASPGEKVTMTCRASSSVSYIHWFQQKPGSSPKPWIYATSNLASGVPVRFSGSGSGTSYSLTISRVEAEDAATYYCQQWTSNPPTFGGGTKLEIKRADAAPTVSIFPPSSEQLTSGGASVVCFLNNFYPKDINVKWKIDGSERQNGVLNSWTDQDSKDSTYSMSSTLTLTKDEYERHNSYTCEATHKTSTSPIVKSFNRNEC
notes: copies: 2 + 2
B7: anti-CD20 (rituximab) human IgG1 G236R (antibody)
heavy: not shown
light: B1 light
notes: EU numbering; also called 2-81; copies: 2 + 2
B8: anti-CD20 (rituximab) human IgG1 G236R/L328R (antibody)
heavy: not shown
light: B1 light
notes: EU numbering; also called 2-68; copies: 2 + 2
B9: anti-CD20 (rituximab) human IgG1 L234D/L235S/G236R (antibody)
heavy: B3 heavy with R238D, R239S
light: B1 light
notes: EU numbering; also called 2-10; 1-29; copies: 2 + 2
B10: anti-CD20 (rituximab) human IgG1 L234Q/L235D/G236R (antibody)
heavy: B3 heavy with R238Q, R239D
light: B1 light
notes: EU numbering; also called 2-28; copies: 2 + 2
B11: anti-CD20 (rituximab) human IgG1 L234Q/L235R/G236R (antibody)
heavy: B3 heavy with R238Q
light: B1 light
notes: EU numbering; also called 2-32; copies: 2 + 2
B12: anti-CD20 (rituximab) human IgG1 L234Q/L235S, sample 2-82 (antibody)
heavy: not shown
light: B1 light
notes: EU numbering; copies: 2 + 2
B13: anti-CD20 (rituximab) human IgG1 L235A/G236R (antibody)
heavy: not shown
light: B1 light
notes: EU numbering; also called 2-79; copies: 2 + 2
B14: anti-CD20 (rituximab) human IgG1 L235G/G236R (antibody)
heavy: not shown
light: B1 light
notes: EU numbering; also called 2-83; copies: 2 + 2
B15: anti-CD20 (rituximab) human IgG1 L235S/G236R (antibody)
heavy: not shown
light: B1 light
notes: EU numbering; also called 2-80; copies: 2 + 2

target: T2, human FcRn (R&D Systems Cat. No. 8639-Fc) (human, UniProt P55899 24-297; P61769 21-119); test: SPR, FcRn captured; Expt 1

Binder | Corrected and normalised response (% of wild-type reference)
B1 | 100 % of wild-type reference
B2 | 94.5 % of wild-type reference
B3 | 106 % of wild-type reference

target: T3, C-terminus biotinylated human FcRn attached to Streptavidin-SmBiT (FcRn-SAv-SmBiT) (human, UniProt P55899 24-297; P61769 21-119, limits assumed, C-terminus biotinylated (AviTag), attached to Streptavidin-SmBiT); test: NanoBiT FcRn competition immunoassay, competitor Tracer-LgBiT human IgG, pH 6.0
T3 construct: Kit reagent; also called hFcRn-AviTag

Binder | Mean binding activity (% of wild-type reference)
B4 | 143 % of wild-type reference

target: T4, Human C1q (Sigma Cat. No. 20476), HRP-labelled (human, UniProt P02745 23-245; P02746 28-253; P02747 29-245); test: ELISA, antibody coated, HRP-C1q; Expt 1, buffer alone 0.061
T4 construct: Coupled to horse-radish peroxidase with Lightning-Link kit; also called HRP-labelled C1q

Binder | Mean Absorbance
B2 | 0.048 absorbance (450 nm)
B3 | 0.029 absorbance (450 nm)

target: T2, human FcRn (R&D Systems Cat. No. …); test: SPR, FcRn captured; Expt 2

Binder | Corrected and normalised response (% of wild-type reference)
B1 | 99 % of wild-type reference
B2 | 93.4 % of wild-type reference
B3 | 108 % of wild-type reference

target: T2, human FcRn (R&D Systems Cat. No. …); test: SPR, FcRn captured; Mean

Binder | Corrected and normalised response (% of wild-type reference)
B1 | 99.3 % of wild-type reference
B2 | 93.5 % of wild-type reference
B3 | 108 % of wild-type reference

target: T4, Human C1q (Sigma Cat. No. 20476), …; test: ELISA, antibody coated, HRP-C1q; Expt 1, buffer alone 0.053

Binder | Mean Absorbance
B5 | 0.051 absorbance (450 nm)
B6 | 1.45 absorbance (450 nm)

target: T2, human FcRn (R&D Systems Cat. No. …); test: SPR, FcRn captured via anti-His, pH 6.0;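 also: SPR binding signal relative to the reference cell, corrected by subtracting the response of a blank sample of running buffer alone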

Binder | Corrected response (RU)
B7 | 570 RU
B8 | 567 RU
B9 | 507 RU
B2 | 513 RU
B10 | 490 RU
B11 | 533 RU
B12 | 509 RU
B3 | 570 RU
B13 | 540 RU
B14 | 547 RU
B15 | 530 RU

target: T1, mouse FcRn (Sino Biological Cat. No. …); test: SPR, FcRn captured via anti-His, pH 6.0;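 also: SPR binding signal relative to the reference cell, corrected by subtracting the response of a blank sample of running buffer alone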

Binder | Corrected response (RU)
B7 | 173 RU
B8 | 206 RU
B9 | 145 RU
B2 | 154 RU
B10 | 170 RU
B11 | 180 RU
B12 | 142 RU
B3 | 181 RU
B13 | 168 RU
B14 | 146 RU
B15 | 189 RU

target: T5, cynomolgus monkey FcRn (Sino Biological Cat. No. CT031-C08H) (cynomolgus monkey, UniProt Q8SPV9 24-297; Q8SPW0 21-119); test: SPR, FcRn captured via anti-His, pH 6.0;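 also: SPR binding signal relative to the reference cell, corrected by subtracting the response of a blank sample of running buffer alone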
T5 construct: Bought protein, captured on an anti-histidine chip; also called cynomolgus FcRn

Binder | Corrected response (RU)
B7 | 1290 RU
B8 | 1290 RU
B9 | 1200 RU
B2 | 1220 RU
B10 | 1160 RU
B11 | 1240 RU
B12 | 1170 RU
B3 | 1300 RU
B13 | 1240 RU
B14 | 1250 RU
B15 | 1220 RU

target: T2, human FcRn (R&D Systems Cat. No. …); test: SPR, FcRn captured; Expt 3

Binder | Corrected and normalised response (% of wild-type reference)
B1 | 99 % of wild-type reference
B2 | 92.8 % of wild-type reference
B3 | 108 % of wild-type reference

target: T4, Human C1q (Sigma Cat. No. 20476), …; test: ELISA, antibody coated, HRP-C1q; Expt 2, buffer alone 0.091

Binder | Mean Absorbance
B1 | 0.089 absorbance (450 nm)

target: T4, Human C1q (Sigma Cat. No. 20476), …; test: ELISA, antibody coated, HRP-C1q; Expt 2, buffer alone 0.051

Binder | Mean Absorbance
B5 | 0.044 absorbance (450 nm)
B6 | 0.953 absorbance (450 nm)
